# Measured values from paper doi:10.1101/2021.06.16.448687 (bioRxiv, 2021).
# B1: stabilized H176C form of the soluble human LLT1 ectodomain (Gln72-Val191), glycosylated (domain or fragment, UniProt Q9UHP7 72-191, looked up)
# chain: QAACPESWIGFQRKCFYFSDDTKNWTSSQRFCDSQDADLAQVESFQELNFLLRYKGPSDHWIGLSREQGQPWKWINGTEWTRQFPILGAGECAYLNDKGASSARCYTERKWICSKSDIHV
# modifications: GlcNAc2Man5 N-glycans
# Target: the molecule itself
# Assay: AUC
protein,measurement,value
B1,stoichiometry N,2
